Measured values published in the supplement of paper PMC6379048.

Experiments:
Experiment in all cases: EC50 of free RNA motif oligo competing protein binding to immobilised probe
SKIV2L = SKIV2L (UniProt Q15477)
Summary of the method: (§1)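 Over three biological replicates and two independent experiments, proteins captured on NHS-Sepharose beads carrying 5′-amino-C6 RNA oligos were quantified by label-free LC-MS/MS and normalised to the control. Capture lasted 30 min at 4°C and followed a 1 h pre-incubation at 4°C of HEK293-FT lysate (2.5 mg protein/well) with the same oligos in free form (0 nM to 30 μM). EC50 was taken from a four-parameter log-logistic fit, and Kd was EC50 corrected by a protein-dependent depletion factor.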

MRPS7 = MRPS7 (UniProt Q9Y2R9)
Summary of the method: as §1

CWF19L1 = target: T1, CWF19L1 (UniProt Q69YN2)
T1 sequence: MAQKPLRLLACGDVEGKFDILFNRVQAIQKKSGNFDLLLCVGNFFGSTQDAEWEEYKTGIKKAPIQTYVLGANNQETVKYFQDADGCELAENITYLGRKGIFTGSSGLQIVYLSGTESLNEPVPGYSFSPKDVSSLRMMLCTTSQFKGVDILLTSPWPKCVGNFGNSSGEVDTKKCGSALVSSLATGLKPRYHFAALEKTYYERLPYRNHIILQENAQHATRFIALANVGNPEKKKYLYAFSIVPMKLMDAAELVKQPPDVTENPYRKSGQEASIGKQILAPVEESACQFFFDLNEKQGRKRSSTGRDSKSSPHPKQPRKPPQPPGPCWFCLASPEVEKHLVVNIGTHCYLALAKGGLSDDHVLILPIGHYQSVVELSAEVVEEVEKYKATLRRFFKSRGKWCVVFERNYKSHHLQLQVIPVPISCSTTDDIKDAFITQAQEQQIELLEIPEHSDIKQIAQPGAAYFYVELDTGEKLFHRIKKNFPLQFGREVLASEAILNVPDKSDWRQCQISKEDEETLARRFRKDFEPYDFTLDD
Summary of the method: as §1

MRPS23 = MRPS23 (UniProt Q9Y3D9)
Summary of the method: as §1

MRPS9 = MRPS9 (UniProt P82933)
Summary of the method: as §1

MRPL19 = MRPL19 (UniProt P49406)
Summary of the method: as §1

HNRNPU = HNRNPU (UniProt Q00839)
Summary of the method: as §1

AGO1 = AGO1 (UniProt Q9UL18)
Summary of the method: as §1

RBM14 = target: T2, RBM14 (UniProt Q96PK6)
T2 sequence: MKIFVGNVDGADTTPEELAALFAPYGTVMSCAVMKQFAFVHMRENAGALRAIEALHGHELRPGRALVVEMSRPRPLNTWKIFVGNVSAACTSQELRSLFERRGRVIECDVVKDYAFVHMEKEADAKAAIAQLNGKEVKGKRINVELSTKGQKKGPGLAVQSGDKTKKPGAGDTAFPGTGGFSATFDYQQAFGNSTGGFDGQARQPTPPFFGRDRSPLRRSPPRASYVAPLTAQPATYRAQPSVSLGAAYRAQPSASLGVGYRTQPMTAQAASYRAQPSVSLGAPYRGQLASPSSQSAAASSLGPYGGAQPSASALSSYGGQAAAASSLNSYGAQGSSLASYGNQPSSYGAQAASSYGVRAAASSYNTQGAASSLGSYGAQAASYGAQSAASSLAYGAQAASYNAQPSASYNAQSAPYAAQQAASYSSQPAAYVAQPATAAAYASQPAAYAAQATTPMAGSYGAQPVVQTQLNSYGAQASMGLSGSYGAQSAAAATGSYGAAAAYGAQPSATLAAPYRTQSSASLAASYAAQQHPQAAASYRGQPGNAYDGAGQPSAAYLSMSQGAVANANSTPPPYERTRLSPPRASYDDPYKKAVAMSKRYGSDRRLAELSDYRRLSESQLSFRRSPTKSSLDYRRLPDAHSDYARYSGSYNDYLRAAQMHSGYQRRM
Summary of the method: as §1

PINX1 = target: T3, PINX1 (UniProt Q96BK5)
T3 sequence: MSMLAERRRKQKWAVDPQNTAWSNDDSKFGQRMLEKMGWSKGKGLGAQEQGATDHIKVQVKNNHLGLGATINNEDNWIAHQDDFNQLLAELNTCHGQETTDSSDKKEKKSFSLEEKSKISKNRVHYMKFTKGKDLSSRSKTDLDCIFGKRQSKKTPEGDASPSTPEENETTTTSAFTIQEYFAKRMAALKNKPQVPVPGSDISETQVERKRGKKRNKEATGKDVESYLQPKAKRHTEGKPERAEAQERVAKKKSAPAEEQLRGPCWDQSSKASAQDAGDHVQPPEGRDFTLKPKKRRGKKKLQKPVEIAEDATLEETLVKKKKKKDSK
Summary of the method: as §1

ZGPAT = target: T4, ZGPAT (UniProt Q8N5A5)
T4 sequence: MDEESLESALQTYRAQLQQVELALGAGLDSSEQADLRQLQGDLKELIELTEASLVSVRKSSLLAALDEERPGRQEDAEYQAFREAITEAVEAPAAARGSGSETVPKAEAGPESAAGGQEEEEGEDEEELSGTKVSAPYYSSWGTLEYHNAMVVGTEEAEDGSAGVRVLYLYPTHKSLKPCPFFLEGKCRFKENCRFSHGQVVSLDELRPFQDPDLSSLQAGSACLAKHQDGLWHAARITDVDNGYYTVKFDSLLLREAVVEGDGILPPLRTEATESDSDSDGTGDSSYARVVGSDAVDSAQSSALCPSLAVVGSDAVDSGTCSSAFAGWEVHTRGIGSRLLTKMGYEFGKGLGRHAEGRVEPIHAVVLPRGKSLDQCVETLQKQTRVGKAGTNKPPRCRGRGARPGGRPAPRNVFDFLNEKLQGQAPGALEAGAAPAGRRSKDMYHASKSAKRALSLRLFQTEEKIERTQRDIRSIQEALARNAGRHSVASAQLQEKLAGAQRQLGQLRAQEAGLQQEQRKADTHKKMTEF
Summary of the method: as §1

Sequence of SKIV2L (Q15477 whole entry): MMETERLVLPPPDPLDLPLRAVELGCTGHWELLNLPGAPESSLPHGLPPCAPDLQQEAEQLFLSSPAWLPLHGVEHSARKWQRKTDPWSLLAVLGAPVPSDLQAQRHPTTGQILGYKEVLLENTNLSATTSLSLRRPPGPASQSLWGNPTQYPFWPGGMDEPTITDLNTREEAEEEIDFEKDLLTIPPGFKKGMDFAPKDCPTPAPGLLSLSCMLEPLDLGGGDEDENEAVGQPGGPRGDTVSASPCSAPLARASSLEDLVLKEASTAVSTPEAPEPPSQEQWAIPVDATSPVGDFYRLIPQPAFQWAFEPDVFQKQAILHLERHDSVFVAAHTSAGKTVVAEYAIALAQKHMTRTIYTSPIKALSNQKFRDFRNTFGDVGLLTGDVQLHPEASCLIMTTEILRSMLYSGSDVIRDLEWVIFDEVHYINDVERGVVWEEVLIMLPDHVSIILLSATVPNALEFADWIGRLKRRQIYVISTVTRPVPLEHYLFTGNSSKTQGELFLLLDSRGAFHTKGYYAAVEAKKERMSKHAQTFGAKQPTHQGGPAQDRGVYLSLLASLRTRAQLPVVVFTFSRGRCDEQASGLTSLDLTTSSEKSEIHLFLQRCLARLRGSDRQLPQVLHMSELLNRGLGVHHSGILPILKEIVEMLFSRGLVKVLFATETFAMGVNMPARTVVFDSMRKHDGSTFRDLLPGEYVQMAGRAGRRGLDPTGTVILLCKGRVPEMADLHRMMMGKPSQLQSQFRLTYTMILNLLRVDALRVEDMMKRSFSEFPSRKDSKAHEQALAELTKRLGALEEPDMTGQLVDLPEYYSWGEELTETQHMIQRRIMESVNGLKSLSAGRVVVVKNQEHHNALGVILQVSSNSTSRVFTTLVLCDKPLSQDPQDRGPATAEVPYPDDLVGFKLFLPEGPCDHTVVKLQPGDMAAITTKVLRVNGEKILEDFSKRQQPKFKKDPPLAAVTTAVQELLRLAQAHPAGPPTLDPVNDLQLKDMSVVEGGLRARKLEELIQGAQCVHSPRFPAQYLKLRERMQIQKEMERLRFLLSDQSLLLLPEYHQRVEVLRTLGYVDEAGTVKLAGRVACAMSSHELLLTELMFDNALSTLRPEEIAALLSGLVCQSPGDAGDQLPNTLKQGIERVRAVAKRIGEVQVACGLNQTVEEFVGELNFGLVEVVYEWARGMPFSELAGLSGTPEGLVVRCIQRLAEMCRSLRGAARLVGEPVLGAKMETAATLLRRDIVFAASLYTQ
Sequence of HNRNPU (Q00839 whole entry): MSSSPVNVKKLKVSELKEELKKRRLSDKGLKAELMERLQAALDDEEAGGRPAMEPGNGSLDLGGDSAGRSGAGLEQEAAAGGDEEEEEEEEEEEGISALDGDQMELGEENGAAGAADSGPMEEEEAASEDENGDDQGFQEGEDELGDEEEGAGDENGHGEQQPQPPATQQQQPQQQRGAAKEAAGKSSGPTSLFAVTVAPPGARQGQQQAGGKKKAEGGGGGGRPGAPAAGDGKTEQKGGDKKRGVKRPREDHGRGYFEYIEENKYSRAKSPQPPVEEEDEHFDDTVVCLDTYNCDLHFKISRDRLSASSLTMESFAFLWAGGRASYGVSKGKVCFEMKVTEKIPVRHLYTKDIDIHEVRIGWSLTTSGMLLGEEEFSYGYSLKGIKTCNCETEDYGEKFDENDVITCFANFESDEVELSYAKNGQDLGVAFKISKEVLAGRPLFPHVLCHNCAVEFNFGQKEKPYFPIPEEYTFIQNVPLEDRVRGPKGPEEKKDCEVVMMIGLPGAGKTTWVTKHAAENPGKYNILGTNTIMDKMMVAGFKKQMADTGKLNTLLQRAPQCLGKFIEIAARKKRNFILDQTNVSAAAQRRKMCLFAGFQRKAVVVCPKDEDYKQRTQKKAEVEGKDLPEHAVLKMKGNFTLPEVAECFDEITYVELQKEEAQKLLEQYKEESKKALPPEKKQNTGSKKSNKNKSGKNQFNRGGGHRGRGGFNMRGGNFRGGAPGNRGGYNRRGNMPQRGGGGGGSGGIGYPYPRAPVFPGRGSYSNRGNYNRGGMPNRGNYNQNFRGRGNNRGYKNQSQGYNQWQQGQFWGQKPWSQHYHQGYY

With UAUUUAU the EC50 (SKIV2L) was 1950 nM, the EC50 (MRPS7) was 84.2 nM and the EC50 (CWF19L1) was 3160 nM. It also gave an EC50 (MRPS23) of 40 nM and an EC50 (MRPS9) of 29.4 nM.
CUGUCCU was tested, and the EC50 (MRPL19) was 136 nM and the EC50 (HNRNPU) was 378 nM.
Sequence AAUAAA has an EC50 (AGO1) of 379 nM, an EC50 (RBM14) of 1980 nM and an EC50 (PINX1) of 2130 nM. For the same sequence, the EC50 (ZGPAT) was 9600 nM.
